Laboratory results: publication PMC13237374

Target: human medin (human) (UniProt Q08431)
Test: thioflavin T aggregation kinetics

## human medin (from UniProt Q08431 268-317) (peptide)
  critical concentration of aggregation: 14 nM
  critical monomer concentration for aggregation: 10 to 25 nM
  elongation rate constant k+ (monomer addition to fibril ends): 5e+07 M⁻¹ s⁻¹
